Data from the supplement of paper PMC12764529.
± gives the half width of the 95% confidence interval.

Legend:
[1] = folding stability dG unfold from trypsin proteolysis; higher = more stable
Outline: (§1)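 Only designs with AlphaFold2 dimer inter-PAE above 15 were retained; each was a mini-protein under 80 residues with no cysteine, in a PA-tagged cDNA display construct. After digestion with trypsin and chymotrypsin and sequencing, K50 was inferred by Bayesian fitting of counts, and unfolding free energy was derived per protease or combined against a sequence-predicted unfolded-state K50 and a shared folded-state K50.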

[2] = folding stability dG unfold from chymotrypsin proteolysis; higher = more stable
Outline: as §1

[3] = folding stability dG unfold (combined trypsin and chymotrypsin); higher = more stable
Outline: as §1

Sequence	folding stability dG unfold [1] [kcal/mol]	folding stability dG unfold [2] [kcal/mol]	folding stability dG unfold [3] [kcal/mol]
SAGGSAGGSAGGAKKAIEEAIKAGYLPYEDPESGKIHFYFPTPDGTIHKLTLFVAPEEESAGGSAGGSAGGS [r10_1173_TrMRF]	0.591 ± 0.03	0.711 ± 0.17	0.796 ± 0.14
SAGGGKTVEVTIEVPGENAVVYIKVYDKDKPISVFPAEFIPPTGTATFTIDVPEDAEITAEVALPEEASAGG [r13_977_TrMRF]	0.106 ± 0.033	0.904 ± 0.14	0.687 ± 0.091
SAGGSAKPKVEVEIVDVEFEEVEVNGKKYLVMKMKVKLKETGEYIEVTMVFDLKTNKMYIEVKKLPSAGGSA [r15_528_TrROS_Hall]	3.49 ± 0.29	5.09 ± 0.24	5.17 ± 0.43
SAGGSAGGSAGGMIKTKDGKVLEFKSLEEALAALKELGVDEVEIEELEPEGVVKVKVKPSAGGSAGGSAGGS [r10_1191_TrROS_Hall]	0.301 ± 0.03	1.34 ± 0.039	1.11 ± 0.11
SAGGSAGGSAPDIKILEPLEVDPDNGMITLKIELPGDGKVHEAIFFNPDGEPMMKFTIEIPKSAGGSAGGSA [r18_296_TrROS]	0.219 ± 0.094	0.358 ± 0.31	0.299 ± 0.3
SAGGSAGGKRKIEIHIIIPPGMPPEWRKKAIEIAKWFAKTLAQENNREVEIKIEIFVLDGMPPWSAGGSAGG [r6_204_TrROS]	2.82 ± 0.19	3.71 ± 0.076	3.6 ± 0.33
SAGGAPLVPVSTETYTVKDSKGNEVTITIETLPDGSYRITITYPNGEVKEYEFPSKEEAEKLEITVNPSAGG [r13_109_JUSTAS]	3.63 ± 0.23	3.66 ± 0.1	3.62 ± 0.14
SAGGSARWFLIRIEFVFGGEPRTFSVLIDVDPGEIEIEIPPELQKKGFQIKDIEIWPLPPEDLKKLSAGGSA [r15_853_TrROS]	2.22 ± 0.04	3.18 ± 0.11	2.84 ± 0.18
SKIRIEVPGETIEITVPPGATVEFDEETGEITITLPDGSKRTIRLPPNAKIEVVDGEIRITIRLPPPPEPSA [r9_653_TrROS_Hall]	3.15 ± 0.12	2.78 ± 0.2	2.93 ± 0.21
SKKKKEKKKKEKEKKEKKKVIVLSEEELLEKVRELAKKGKKVKIVVKTPDKELAERLAKEAEELGVEVEVSA [r9_468_TrROS_Hall]	1.45 ± 0.059	1.32 ± 0.027	1.31 ± 0.13
SAGGSAGGSADGWVFLVGADVEVEPVPASLLNVPRSVPGEENPYVVKLKEVSFLLVPAKELSAGGSAGGSAG [r3_488_TrMRF]	-0.906 ± 0.39	0.734 ± 0.23	0.185 ± 0.16
SAGGSVVPLPLDETVELTFDGTTATFTALPDGTATATFTGPDSTARATFPPDGAVTVTVPGAGTTAASAGGS [r16_725_JUSTAS]	-1.18 ± 0.62	-0.268 ± 0.19	-0.404 ± 0.19
SAGGKVTLRAPVVVPKDKIEDFIDALREALEALGLKEFKDIEIKEIIEGDDYYIIDFEVTAEADLPELASAG [r5_575_TrMRF]	2.65 ± 0.12	2.21 ± 0.036	2.32 ± 0.13
SAGGSAGGSAGMTRTVTFTITDPNSSNTTTITVPTTSEQDVAAAKAALKAANPNVTITLTSAGGSAGGSAGG [r11_233_JUSTAS]	0.3 ± 0.12	0.954 ± 0.092	0.718 ± 0.076
SAGGSAGGSGAEEIAKALKELGVKKVEITVERNENGELTVTVRVEVEAPPPKVEVKTEEELKKSAGGSAGGS [r12_246_TrROS_Hall]	0.527 ± 0.1	1.01 ± 0.14	0.939 ± 0.21
SMVYVFEVPEGDPEKAEELIRAKLEEEFGYKVESVATPGGGGARVVLVVDPVEDKAYAEVIPFAPDGSPASA [r9_173_TrMRF]	-0.529 ± 0.21	1.15 ± 0.2	0.618 ± 0.16
SAGGSAGGSAGAPPDVEEVTVTVTITNPDGSTTTTTVTATPEELAALAAAPGRPTAVSAESAGGSAGGSAGG [r17_313_JUSTAS]	0.635 ± 0.072	0.486 ± 0.015	0.595 ± 0.17
SAGGSAGGMVTIASITFEEDPEGGITVTVYLPSNGKTITVPVPADTPEAEARARAEAAARAYAASAGGSAGG [r6_628_JUSTAS]	0.894 ± 0.028	1.49 ± 0.098	1.28 ± 0.15
SAGGSAGGSAGGKTLRIKVEETEYVVLFPNTGRLLVIPPGYEAEIELDDAPDVLILGRPPSAGGSAGGSAGG [r11_939_TrMRF]	0.123 ± 0.18	1.79 ± 0.16	1.34 ± 0.13
SAGMKKTITIKIEVPEKPIRIIVEKNGKKEEITIKPGETVTIEIELEPGETLRIRIVNEDGEEFEFEIKSAG [r5_187_TrROS_Hall]	4.15 ± 0.3	3.45 ± 0.12	3.68 ± 0.28
SAGGSAGGSKVKLTFTIPPGTTPEEAIAKAEELAKKLNIPIVKIDSIEYDPETGTVRIELELDSAGGSAGGS [r12_131_TrMRF]	4.05 ± 0.15	4.31 ± 0.049	4.31 ± 0.068

Sequence	folding stability dG unfold [1] [kcal/mol]	folding stability dG unfold [2] [kcal/mol]	folding stability dG unfold [3] [kcal/mol]
SAGGKVYEFEIEVELLDPETGKPKKIKLKVPVFVDPKTGKVTKKVEAEPEPNVPKEEAEKIAKEIIEAESAG [r14_152_TrMRF]	-0.04 ± 0.38	1.71 ± 0.073	1.36 ± 0.31
SAGGSAGGSAGKPKTVEIEVTNEDGSKYKAKVVEVDEEKGYVLIKITNPDGSEQTILIKLSAGGSAGGSAGG [r11_742_TrROS_Hall]	1.81 ± 0.06	2.97 ± 0.033	2.6 ± 0.1
SAGGSAMAPNVRPIPIFIDVPAEPFTRDPDGRIGLTPEELARRLAEEIRARTGAPIDTIVVHFHEPSAGGSA [r15_415_TrMRF]	0.773 ± 0.11	-0.0348 ± 0.18	0.409 ± 0.092
SAGGSAGGSAGKKSYVLIKVKNPKTKETHTIVVPEENLEEVLKALASQPNVKVVDIERFPSAGGSAGGSAGG [r11_692_TrROS_Hall]	3.65 ± 0.19	4.11 ± 0.065	3.95 ± 0.12
SAGGSAMPPNMKKVPISIHIPAENYKRDPDGKWKFTADELARHIQRGFRQRFGMPIKKIDVHVHPPSAGGSA [r15_415_TrROS]	-0.000463 ± 0.31	0.00448 ± 0.31	-0.0271 ± 0.21
SAGGSAGGMVVRVTLPDGTVVTFEFESEEEFRKEFAASLGLAPDEIPEERIVSVERLSPEEYRSSAGGSAGG [r6_588_JUSTAS]	1.26 ± 0.039	1.64 ± 0.11	1.59 ± 0.086
SAMRIEIVRDPETGELVVRVVLPREEAEEAAEELARRLAEAGLEVEVKVVRIEETDGETRVVVEIKVKPSAG [r14_345_TrROS_Hall]	3.74 ± 0.11	2.88 ± 0.061	3.3 ± 0.1
SKNKVEITIPMPYSQAREIARQLGLPPEKFKDPKDLVDWLKDLFPKDVKIRIQPMKPVTEEERRARQNGKSA [r9_74_TrROS]	0.817 ± 0.12	1.34 ± 0.076	1.12 ± 0.085
SAGGSAGGSAGGGSMSITVPMSPEEGKKLAEEIKEKLKSEGNPVEVTVTIVSPTDPSLLSSAGGSAGGSAGG [r7_776_JUSTAS]	0.627 ± 0.04	0.167 ± 0.066	0.41 ± 0.17
SAGGMKTVEIEIPVPPGMSIEELVKKLLEELKKKKDIKEVEIEITLKDGSKIKIRVNKNGKIVKVEKLSAGG [r13_690_TrROS_Hall]	1.73 ± 0.056	2.46 ± 0.11	2.25 ± 0.15
SAGGSAGGSILVIKIKFPGNGRPIHYPIKDPEDFDRVLKKAKERFPGYDKDNIKEAEIYPLPPSAGGSAGGS [r12_852_TrROS]	-0.436 ± 0.22	-0.00689 ± 0.29	-0.0696 ± 0.17
SMRKVKRKVTLEITIKVPESVLKPIPDADYYTYPFDDKLVKPDAVIPRTVTITGPYTEEEVEKLVKEILSSA [r9_165_JUSTAS]	0.749 ± 0.2	-0.613 ± 0.48	0.249 ± 0.25
SAGKKVTIKAIVRVKLANGEWFEAKVKEVTFDEETGEVTITVEVDGKTYTITVPLEDIELVDDAEEALKSAG [r5_15_TrROS_Hall]	2.19 ± 0.034	3.72 ± 0.064	3.25 ± 0.063
SAGGSAGGSAGGMVTATVTEYQPGEGLLTVKPPDGSTITIAVPPSVSYEELKNTTIDLSLSAGGSAGGSAGG [r7_296_JUSTAS]	1.09 ± 0.036	0.021 ± 0.072	0.714 ± 0.066
SAGGSAGGSAGGPWYVRIEYTPPNGNKETFIIPSPEEIDEWAEPFGVPVKIEPIPPGDPISAGGSAGGSAGG [r7_456_TrROS]	0.801 ± 0.02	0.604 ± 0.1	0.736 ± 0.091
SAGGSAGGSNLEEFLAKLPPDVEVVVDPETGTVLVRFPKTGTVAVFRVDAAEGKVELVEVKPVSAGGSAGGS [r12_82_TrMRF]	3.88 ± 0.11	3.72 ± 0.049	3.77 ± 0.073
MTIVIDTPVPPEEAEALLRELAEELGYSPELMEVEERVFSEGEDGRPYVTLTVRLPGLGVTITLRLPPDAAS [r1_21_JUSTAS]	3.61 ± 0.11	3.681 ± 0.02	3.66 ± 0.041
SAGGMKLEFEAEITVPLPVPTPEGGLEFVPITEPIRIEAEHPEELEIALKEAELETIERALKELGIESAGGS [r16_339_TrMRF]	-0.594 ± 0.19	-0.723 ± 0.16	-0.845 ± 0.59
SKKVVFVTYPKTSVKEIVEKLKENPNTEFVFLMPSSVGPEFYEKLKKALKEANIPKEQKVLFLPVEENSLSA [r9_670_TrMRF]	2.92 ± 0.13	3.106 ± 0.015	3.04 ± 0.077
SAGGMYMVQIEVRSPDKEIPFMIMVPEDDPKKIVDDIKEEIAEEAGADNVNIKIEVYRMDENGEWEWISAGG [r13_877_TrROS]	0.866 ± 0.088	1.01 ± 0.13	1.02 ± 0.11
SAGGSAGMMPTKITVTLTLPPDAPDVEAVAERLAAELGVEVSNAEVLEVRRLPDGSREVVIELTLLSAGGSA [r15_654_JUSTAS]	4.2 ± 0.18	4.18 ± 0.094	4.17 ± 0.1
